Ki data for 18 molecules are collected here from patent US20190233475A1 (Bicycle, published 2019).

Sequences and labels used below:
B1: 06-259 (peptide)
peptide: ACNTWNPWCGWVGGFCA-NH2
modifications: linker 2-9-16 via TBMB
notes: Synthetic bicyclic peptide, 6 x 6, made on Rink amide resin
B2: 06-254-02 (peptide)
peptide: ACKNYWNPCDLIPGPCA-NH2
modifications: linker 2-9-16 via TBMB; N-terminus assumed
SMILES: CC[C@H](C)[C@@H]1NC(=O)[C@H](CC(C)C)NC(=O)[C@H](CC(=O)O)NC(=O)[C@@H]2CSCc3cc(cc(c3)CSC[C@@H](C(=O)N[C@@H](C)C(N)=O)NC(=O)[C@@H]3CCCN3C(=O)CNC(=O)[C@@H]3CCCN3C1=O)CSC[C@H](NC(=O)[C@H](C)N)C(=O)N[C@@H](CCCCN)C(=O)N[C@@H](CC(N)=O)C(=O)N[C@@H](Cc1ccc(O)cc1)C(=O)N[C@@H](Cc1c[nH]c3ccccc13)C(=O)N[C@@H](CC(N)=O)C(=O)N1CCC[C@H]1C(=O)N2
notes: as for B1
B3: 06-259-02 (peptide)
peptide: ACNTWNPWCPWDAPLCA-NH2
modifications: linker 2-9-16 via TBMB
notes: as for B1
B4: 06-259-04 (peptide)
peptide: ACNYWNPWCPWDAPLCA-NH2
modifications: linker 2-9-16 via TBMB
notes: as for B1
B5: 06-254-03 (peptide)
peptide: ACKNYWNPCDLVMDTCA-NH2
modifications: linker 2-9-16 via TBMB; N-terminus assumed
SMILES: CSCC[C@@H]1NC(=O)[C@H](C(C)C)NC(=O)[C@H](CC(C)C)NC(=O)[C@H](CC(=O)O)NC(=O)[C@@H]2CSCc3cc(cc(c3)CSC[C@@H](C(=O)N[C@@H](C)C(N)=O)NC(=O)[C@H]([C@@H](C)O)NC(=O)[C@H](CC(=O)O)NC1=O)CSC[C@H](NC(=O)[C@H](C)N)C(=O)N[C@@H](CCCCN)C(=O)N[C@@H](CC(N)=O)C(=O)N[C@@H](Cc1ccc(O)cc1)C(=O)N[C@@H](Cc1c[nH]c3ccccc13)C(=O)N[C@@H](CC(N)=O)C(=O)N1CCC[C@H]1C(=O)N2
notes: as for B1
B6: 06-259-03 (peptide)
peptide: ACNHWNPWCSADPPICA-NH2
modifications: linker 2-9-16 via TBMB
notes: as for B1
B7: 06-259-01 (peptide)
peptide: ACNHWNPWCSVEPPVCA-NH2
modifications: linker 2-9-16 via TBMB
notes: as for B1
B8: 06-257 (peptide)
peptide: ACPLSDTLCYRRMPPCA-NH2
modifications: linker 2-9-16 via TBMB
notes: as for B1
B9: 06-261 (peptide)
peptide: ACNNFPFRCVYYPDICA-NH2
modifications: linker 2-9-16 via TBMB
notes: as for B1
B10: 06-256 (peptide)
peptide: ACQKFESRCRVDTRYCA-NH2
modifications: linker 2-9-16 via TBMB
notes: as for B1
B11: 06-254-01 (peptide)
peptide: ACKNYWNPCDLIETTCA-NH2
modifications: linker 2-9-16 via TBMB; N-terminus assumed
SMILES: CC[C@H](C)[C@@H]1NC(=O)[C@H](CC(C)C)NC(=O)[C@H](CC(=O)O)NC(=O)[C@@H]2CSCc3cc(cc(c3)CSC[C@@H](C(=O)N[C@@H](C)C(N)=O)NC(=O)[C@H]([C@@H](C)O)NC(=O)[C@H]([C@@H](C)O)NC(=O)[C@H](CCC(=O)O)NC1=O)CSC[C@H](NC(=O)[C@H](C)N)C(=O)N[C@@H](CCCCN)C(=O)N[C@@H](CC(N)=O)C(=O)N[C@@H](Cc1ccc(O)cc1)C(=O)N[C@@H](Cc1c[nH]c3ccccc13)C(=O)N[C@@H](CC(N)=O)C(=O)N1CCC[C@H]1C(=O)N2
notes: as for B1
B12: 06-258 (peptide)
peptide: ACPYPFRCLHENLCA-NH2
modifications: linker 2-8-14 via TBMB
notes: Synthetic bicyclic peptide, 5 x 5, made on Rink amide resin
B13: Ac-(06-550)-Sar3-(DArg2) (peptide)
peptide: Ac-CSFPYRCVYYPDICA[Sar][Sar][Sar][dR][dR]-NH2
modifications: linker 1-7-14 via TBMB
notes: Synthetic bicyclic peptide, 5 x 6, made on Rink amide resin
B14: Ac-(06-255) (peptide)
peptide: Ac-CRNYWNPCTLINITC-NH2
modifications: linker 1-8-15 via TBMB
notes: Synthetic bicyclic peptide without the terminal alanines, made on Rink amide resin
B15: Ac-(06-255)-Sar3-(DArg2) (peptide)
peptide: Ac-CRNYWNPCTLINITCA[Sar][Sar][Sar][dR][dR]-NH2
modifications: linker 1-8-15 via TBMB
SMILES: CC[C@H](C)[C@@H]1NC(=O)[C@H](CC(C)C)NC(=O)[C@H]([C@@H](C)O)NC(=O)[C@@H]2CSCc3cc(cc(c3)CSC[C@@H](C(=O)N[C@@H](C)C(=O)N(C)CC(=O)N(C)CC(=O)N(C)CC(=O)N[C@H](CCCNC(=N)N)C(=O)N[C@H](CCCNC(=N)N)C(N)=O)NC(=O)[C@H]([C@@H](C)O)NC(=O)[C@H]([C@@H](C)CC)NC(=O)[C@H](CC(N)=O)NC1=O)CSC[C@H](NC(C)=O)C(=O)N[C@@H](CCCNC(=N)N)C(=O)N[C@@H](CC(N)=O)C(=O)N[C@@H](Cc1ccc(O)cc1)C(=O)N[C@@H](Cc1c[nH]c3ccccc13)C(=O)N[C@@H](CC(N)=O)C(=O)N1CCC[C@H]1C(=O)N2
notes: Synthetic bicyclic peptide with solubilising extension, made on Rink amide resin
B16: Ac-(06-550)-Sar3-(DArg2) Aze3HArg5 (peptide)
peptide: Ac-CSF[Aze]Y[hArg]CVYYPDICA[Sar][Sar][Sar][dR][dR]-NH2
modifications: linker 1-7-14 via TBMB
notes: Synthetic bicyclic peptide, 5 x 6, made on Rink amide resin; also called Bicycle 1
B17: Ac-(06-259-02)-Sar3-(DArg2) (peptide)
peptide: Ac-CNTWNPWCPWDAPLCA[Sar][Sar][Sar][dR][dR]-NH2
modifications: linker 1-8-15 via TBMB
SMILES: CC(=O)N[C@H]1CSCc2cc3cc(c2)CSC[C@H](NC(=O)[C@H](Cc2c[nH]c4ccccc24)NC(=O)[C@@H]2CCCN2C(=O)[C@H](CC(N)=O)NC(=O)[C@H](Cc2c[nH]c4ccccc24)NC(=O)[C@H]([C@@H](C)O)NC(=O)[C@H](CC(N)=O)NC1=O)C(=O)N1CCC[C@H]1C(=O)N[C@@H](Cc1c[nH]c2ccccc12)C(=O)N[C@@H](CC(=O)O)C(=O)N[C@@H](C)C(=O)N1CCC[C@H]1C(=O)N[C@@H](CC(C)C)C(=O)N[C@H](C(=O)N[C@@H](C)C(=O)N(C)CC(=O)N(C)CC(=O)N(C)CC(=O)N[C@H](CCCNC(=N)N)C(=O)N[C@H](CCCNC(=N)N)C(N)=O)CSC3
notes: Synthetic bicyclic peptide with solubilising extension, made on Rink amide resin; also called Bicycle 3

*1 amine or outer side, *2 acyl side, *3 side chain or, on linkers, in order; H or OH if unused. Bridges are numbered along the chain shown (N, C = ends). Where no end group is shown, it is not given here. [ ]: non-standard residue; d: D form. TBMB = c1c(C[*:1])cc(C[*:3])cc1C[*:2]; hArg = N=C(N)NCCCC[C@H](N)C(=O)O; Aze = O=C(O)[C@@H]1CCN1; Sar = CNCC(=O)O

For the first experiment, the target named is T1, human plasma kallikrein (human, UniProt P03952 20-638).
T1 construct: Enzyme used in the Ki assays; also called human kallikrein; PK
T1 sequence (P03952 20-638 limits assumed): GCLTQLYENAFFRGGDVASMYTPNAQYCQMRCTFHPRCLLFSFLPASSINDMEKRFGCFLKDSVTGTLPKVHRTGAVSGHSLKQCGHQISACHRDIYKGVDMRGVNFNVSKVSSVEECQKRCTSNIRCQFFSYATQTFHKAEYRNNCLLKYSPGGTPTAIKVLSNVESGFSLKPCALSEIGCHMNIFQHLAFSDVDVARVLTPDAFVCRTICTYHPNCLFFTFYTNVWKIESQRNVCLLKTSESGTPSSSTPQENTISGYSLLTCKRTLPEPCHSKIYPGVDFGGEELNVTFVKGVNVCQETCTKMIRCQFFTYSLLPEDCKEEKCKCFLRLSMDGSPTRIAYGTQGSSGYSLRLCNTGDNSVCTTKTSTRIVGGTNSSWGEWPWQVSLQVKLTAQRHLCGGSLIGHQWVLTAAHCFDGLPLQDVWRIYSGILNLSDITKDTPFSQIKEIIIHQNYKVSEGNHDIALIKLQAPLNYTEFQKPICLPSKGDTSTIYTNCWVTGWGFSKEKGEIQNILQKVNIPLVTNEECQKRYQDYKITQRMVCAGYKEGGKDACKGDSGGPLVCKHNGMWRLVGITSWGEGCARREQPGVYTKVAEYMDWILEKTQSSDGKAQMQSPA
In words: enzyme inhibition assay, fluorogenic substrate Z-PheArg-AMC. The method, then: (§1) Functional enzyme assays were conducted in 10 mM Tris HCl, 150 mM NaCl, 10 mM MgCl₂, 1 mM CaCl₂ and 1 mg/mL BSA (all Sigma UK) pH 7.4 at 25° C. in solid black 96 or 384 well plates. […] Release of AMC was measured using a Pherastar FS (BMG Labtech), excitation 360 nm, emission 460 nm. The rate of the linear phase of the reaction, typically 5 to 45 minutes, was calculated in MARS data analysis software (BMG labtech). The rate was then used to calculate the IC₅₀ and Kᵢ in Prism (GraphPad). A four parameter inhibition non-linear regression equation was used to calculate the IC₅₀. The One site-fit Kᵢ equation used to calculate the Kᵢ, constraining the Kᵢ to the Kₘ for the substrate which is 150 μM for the human enzyme, and 200 μM for the rat orthologue. All Kᵢ/IC₅₀ values are the mean of at least two independent experiments, and at least three for peptides with Kᵢ values lower than 1 nM. For rabbit kallikrein, between 7 to 14 pM enzyme was employed, with 33 μM substrate with a Kₘ of 50 μM.
In general, Ki refers to a dissociation constant, usually derived from enzyme kinetics or from competition with a known ligand. High values mean weaker binding, low ones tighter binding. Consider B1, for which the Ki is 20.1 nM.

Turning to B2, the affinity corresponds to a Ki of 0.5 nM.

The molecule B3 showed a Ki of 2.3 nM.

For the molecule B4, the Ki was 3.4 nM.

Regarding B5, the Ki was determined as 1.4 nM.

Take B6: affinity was put at a Ki of 1.4 nM.

Molecule B7 displayed a Ki of 2.4 nM.

The molecule B8 registered a Ki of 36.1 nM.

Take B9: the Ki worked out at 0.4 nM.

In turn, B10 displayed a Ki of 6.6 nM.

B11 yielded a Ki of 1 nM.

The molecule B12 returned a Ki of 4.3 nM.

For the next experiment, the target named is T2, rabbit plasma kallikrein (rabbit, UniProt G1T127 20-390; G1T127 391-629, The active enzyme is two chains, heavy and catalytic light, joined by a disulfide after cleavage at Arg390-Ile391. The letters do not carry the natural glycosylation.).
T2 construct: also called rabbit kallikrein
T2 sequence (heavy, as listed by the source limits assumed, form in doubt, chain 1 of 2): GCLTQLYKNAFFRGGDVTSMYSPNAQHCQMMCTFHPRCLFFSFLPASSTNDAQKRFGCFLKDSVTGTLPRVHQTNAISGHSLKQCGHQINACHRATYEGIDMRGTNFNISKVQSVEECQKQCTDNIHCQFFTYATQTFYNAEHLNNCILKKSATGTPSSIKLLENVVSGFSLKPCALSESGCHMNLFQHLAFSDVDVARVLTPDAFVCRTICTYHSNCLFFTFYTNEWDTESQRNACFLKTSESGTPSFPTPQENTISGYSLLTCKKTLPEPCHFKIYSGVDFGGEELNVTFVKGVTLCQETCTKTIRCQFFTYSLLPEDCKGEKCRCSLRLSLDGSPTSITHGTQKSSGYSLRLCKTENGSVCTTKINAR
T2 sequence (light, as listed by the source limits assumed, form in doubt, chain 2 of 2): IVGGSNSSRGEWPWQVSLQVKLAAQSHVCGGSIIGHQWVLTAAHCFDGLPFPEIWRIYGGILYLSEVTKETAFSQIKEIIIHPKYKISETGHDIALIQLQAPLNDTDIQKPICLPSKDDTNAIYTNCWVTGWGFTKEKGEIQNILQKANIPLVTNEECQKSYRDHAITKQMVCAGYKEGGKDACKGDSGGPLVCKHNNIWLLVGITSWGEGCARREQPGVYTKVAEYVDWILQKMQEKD
Described as above. The method, then:
as §1
Turning to B3, the Ki was 1450 nM.

In turn, B9 gave a Ki of 1040 nM.

B10 registered a Ki of 1460 nM.

Molecule B12 came in with a Ki of 331 nM.

The target of another experiment is T3, rat plasma kallikrein (rat, UniProt P14272 391-638).
T3 construct: domain: catalytic domain; Expressed and purified in house; also called rat kallikrein; rPK
T3 sequence (P14272 391-638 limits assumed): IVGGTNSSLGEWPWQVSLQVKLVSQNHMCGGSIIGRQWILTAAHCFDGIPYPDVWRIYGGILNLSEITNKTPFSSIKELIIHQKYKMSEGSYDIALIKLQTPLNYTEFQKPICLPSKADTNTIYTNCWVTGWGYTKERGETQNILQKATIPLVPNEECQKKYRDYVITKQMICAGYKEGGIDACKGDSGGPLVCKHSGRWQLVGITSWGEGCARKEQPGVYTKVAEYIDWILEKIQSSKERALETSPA
Described as above. The method, then: as §1
With B1, affinity was put at a Ki of 6.2 nM.

In turn, B2 returned a Ki of 7.6 nM.

For the molecule B3, the affinity corresponds to a Ki of 0.2 nM.

B4 had a Ki of 6.7 nM.

For the molecule B5, the Ki was 10.1 nM.

In the case of B6, the Ki came out at 8.2 nM.

In turn, B7 came in with a Ki of 10.4 nM.

B8 displayed a Ki of 159 nM.

B9 showed a Ki of 4 nM.

Consider B10, for which the Ki stood at 2780 nM.

Regarding B11, affinity was put at a Ki of 15.9 nM.

Molecule B12 yielded a Ki of 5.2 nM.

Another experiment concerns the target T1, human plasma kallikrein. The experiment is described as above. The source holds these as a separate data set. The method, then: as §1
For B13, the affinity, expressed as Ki, was 2.1 nM.

In turn, B14 showed a Ki of 3.7 nM.

In the case of B1, the inhibition constant (Ki) is 20.1 nM.

Consider B15, for which the affinity corresponds to a Ki of 1.2 nM.

On to B8, for which the affinity corresponds to a Ki of 36.1 nM.

Turning to B9, the affinity, expressed as Ki, was 0.4 nM.

With B10, the affinity, expressed as Ki, was 6.6 nM.

For the molecule B16, the inhibition constant (Ki) stood at 0.4 nM.

For B12, the Ki was 4.3 nM.

With B17, affinity was put at a Ki of 0.8 nM.

In the case of Ac-CSFPYRCVYYPDIC-NH2 (linker 1-7-14 via TBMB) [Ac-(06-550)], the Ki worked out at 0.9 nM.

Another experiment deals with T2, rabbit plasma kallikrein. Described as above. The source holds these as a separate data set. The method, then: as §1
B13 had a Ki of 207 nM.

B14 returned a Ki of 342 nM.

In the case of B15, the Ki was determined as 251 nM.

Regarding B9, the affinity, expressed as Ki, was 1040 nM.

B10: the Ki was determined as 1460 nM.

B16: affinity was put at a Ki of 2650 nM.

For B12, the Ki was 331 nM.

Regarding B17, the Ki is 1450 nM.

Regarding Ac-CSFPYRCVYYPDIC-NH2 (linker 1-7-14 via TBMB) [Ac-(06-550)], the affinity corresponds to a Ki of 610 nM.

Another experiment has as its target T3, rat plasma kallikrein. Described as above. This is another data set of the same source. The method, then: as §1
B13 showed a Ki of 24 nM.

For B14, affinity was put at a Ki of 7.7 nM.

Take B1: the affinity corresponds to a Ki of 6.2 nM.

Consider B15, for which the Ki is 7.4 nM.

With B8, the Ki is 159 nM.

Molecule B9 had a Ki of 4 nM.

Regarding B10, the Ki came to 2780 nM.

Take B16: the Ki came out at 8.2 nM.

With B12, the Ki is 5.2 nM.

As to B17, the affinity corresponds to a Ki of 2.1 nM.

As to Ac-CSFPYRCVYYPDIC-NH2 (linker 1-7-14 via TBMB) [Ac-(06-550)], the Ki worked out at 9.3 nM.
